Experimental data reported in IntAct's records for PubMed 21081649.

B1: NAD-dependent protein deacetylase sirtuin-2 (Homo sapiens), Q8IXJ6-2 (parent)
chain: MDFLRNLFSQTLSLGSQKERLLDELTLEGVARYMQSERCRRVICLVGAGISTSAGIPDFRSPSTGLYDNLEKYHLPYPEAIFEISYFKKHPEPFFALAKELYPGQFKPTICHYFMRLLKDKGLLLRCYTQNIDTLERIAGLEQEDLVEAHGTFYTSHCVSASCRHEYPLSWMKEKIFSEVTPKCEDCQSLVKPDIVFFGESLPARFFSCMQSDFLKVDLLLVMGTSLQVQPFASLISKAPLSTPRLLINKEKAGQSDPFLGMIMGLGGGMDFDSKKAYRDVAWLGECDQGCLALAELLGWKKELEDLVRREHASIDAQSGAGVPNPSTSASPKKSPPPAKDEARTTEREKPQ

Variants of: B1
Conditions: with h4_human H4C16, P62805

| Variant | effect of a mutation on the interaction |
| --- | --- |
| MDFARNLFSQTASLGSQKERLLDELTLEGVARYMQSERCRRVICLVGAGISTSAGIPDFRSPSTGLYDNLEKYHLPYPEAIFEISYFKKHPEPFFALAKELYPGQFKPTICHYFMRLLKDKGLLLRCYTQNIDTLERIAGLEQEDLVEAYGTFYTSHCVSASCRHEYPLSWMKEKIFSEVTPKCEDCQSLVKPDIVFFGESLPARFFSCMQSDFLKVDLLLVMGTSLQVQPFASLISKAPLSTPRLLINKEKAGQSDPFLGMIMGLGGGMDFDSKKAYRDVAWLGECDQGCLALAELLGWKKELEDLVRREHASIDAQSGAGVPNPSTSASPKKSPPPAKDEARTTEREKPQ [L4A;L12A;H150Y] | increasing interaction |
